Test [1] concerns the target T1, human serum albumin (human, UniProt P02768 25-609).
T1 construct: also called HSA; HAS
In words: BIACORE SPR, albumin on a CM5 chip, dAb in solution. (In general: SPR reads the build-up and loss of mass on a sensor chip optically.)
Description: (§1) dAbs that bound serum albumin on a BIACORE chip (Biacore AB) were then further analysed to obtain information on affinity. The analysis was performed using a CM5 chip (carboxymethylated dextran matrix) that was coated with serum albumin. Flow cell 1 was an uncoated, blocked negative control, flow cell 2 was coated with HSA, flow cell 3 was coated with RSA and flow cell 4 was coated with MSA. The serum albumins were immobilised in acetate buffer pH 5.5 using the BIACORE coating wizard which was programmed to aim for 500 resonance units (RUs) of coated material. Each dAb of interest was expressed in the periplasm of E. coli on a 200 mL-500 mL scale and purified from the supernatant using batch absorption to protein A-streamline affinity resin (Amersham, UK) for the VH_{^S} and to protein L-agarose affinity resin (Affitech, Norway) for the Vκs followed by elution with glycine at pH 2.2 and buffer exchange to PBS. A range of concentrations of dAb were prepared (in the range 5 nM to 5 μM) by dilution into BIACORE HBS-EP buffer and flowed across the BIACORE chip.

Another test concerns the target T2, mouse serum albumin (mouse, UniProt P07724 25-608).
T2 construct: also called MSA
As to the kind of experiment: table of affinities (KD); BIACORE on serum albumin-coated chip according to Example 1.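 Also: surface plasmon resonance with dAbs flowed over a chip carrying human, rat or mouse serum albumin, blocked uncoated flow cell as reference, KD from on- and off-rate curve fits.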

Test [2] deals with T1, human serum albumin. Described as above.
Description: as §1
Test [3] deals with T3, rat serum albumin (rat, UniProt P02770 25-608).
T3 construct: also called RSA
The test is described as above.
Description: as §1

Test [4] addresses T1, human serum albumin. In words: BIACORE, HSA flow cell (Fc=2), fit of the single trace at 250n analyte, row 'Fc=2 - 6' [contd.].
Description: as §1
Test [5] concerns the target T1, human serum albumin. In words: BIACORE, HSA flow cell (Fc=2), fit of the single trace at 500n analyte, row 'Fc=2 - 5' [contd.].
Description: as §1
For test [6], the target named is T1, human serum albumin. As to the kind of experiment: BIACORE, HSA flow cell (Fc=2), fit of the single trace at 1000n analyte, row 'Fc=2 - 4' [contd.].
Description: as §1
Test [7] concerns the target T1, human serum albumin. In words: BIACORE, HSA flow cell (Fc=2), fit of the single trace at 2000n analyte, row 'Fc=2 - 3' [contd.].
Description: as §1
Test [8] deals with T1, human serum albumin. In words: BIACORE, HSA flow cell (Fc=2), fit of the single trace at 250n analyte, row 'Fc=2 - 6'; KD cell shaded [contd.].
Description: (§2) dAbs that bound serum albumin on a BIACORE chip (Biacore AB) were then further analysed to obtain information on affinity. The analysis was performed using a CM5 chip (carboxymethylated dextran matrix) that was coated with serum albumin. Flow cell 1 was an uncoated, blocked negative control, flow cell 2 was coated with HSA, flow cell 3 was coated with RSA and flow cell 4 was coated with MSA. The serum albumins were immobilised in acetate buffer pH 5.5 using the BIACORE coating wizard which was programmed to aim for 500 resonance units (RUs) of coated material. […] A range of concentrations of dAb were prepared (in the range 5 nM to 5 μM) by dilution into BIACORE HBS-EP buffer and flowed across the BIACORE chip.
Test [9] addresses T1, human serum albumin. As to the kind of experiment: BIACORE, HSA flow cell (Fc=2), fit of the single trace at 500n analyte, row 'Fc=2 - 5'; KD cell shaded [contd.].
Description: as §2
For test [10], the target named is T1, human serum albumin. In words: BIACORE, HSA flow cell (Fc=2), fit of the single trace at 1000n analyte, row 'Fc=2 - 4'; KD cell shaded [contd.].
Description: as §1
The target of test [11] is T1, human serum albumin. As to the kind of experiment: BIACORE, HSA flow cell (Fc=2), fit of the single trace at 2000n analyte, row 'Fc=2 - 3'; KD cell shaded [contd.].
Description: as §1
The target of test [12] is T1, human serum albumin. As to the kind of experiment: BIACORE, HSA flow cell (Fc=2), fit of the single trace at 125n analyte, row 'Fc=2 - 47' [contd.].
Description: as §1
Test [13] addresses T1, human serum albumin. In words: BIACORE, HSA flow cell (Fc=2), fit of the single trace at 250n analyte, row 'Fc=2 - 46' [contd.].
Description: as §1
The target of test [14] is T1, human serum albumin. As to the kind of experiment: BIACORE, HSA flow cell (Fc=2), fit of the single trace at 500n analyte, row 'Fc=2 - 45' [contd.].
Description: as §1
The target of test [15] is T1, human serum albumin. As to the kind of experiment: BIACORE, HSA flow cell (Fc=2), fit of the single trace at 1000n analyte, row 'Fc=2 - 44' [contd.].
Description: as §1
Test [16] addresses T1, human serum albumin. As to the kind of experiment: BIACORE, HSA flow cell (Fc=2), fit of the single trace at 2000n analyte, row 'Fc=2 - 43' [contd.].
Description: as §1
For test [17], the target named is T1, human serum albumin. As to the kind of experiment: BIACORE, HSA flow cell (Fc=2), fit of the single trace at 3000n analyte, row 'Fc=2 - 42' [contd.].
Description: as §1
The target of test [18] is T1, human serum albumin. In words: BIACORE, HSA flow cell (Fc=2), fit of the single trace at 5000n analyte, row 'Fc=2 - 41' [contd.].
Description: as §2
Test [19] deals with T1, human serum albumin. In words: BIACORE, HSA flow cell (Fc=2), fit of the single trace at 62.5n analyte, row 'Fc=2 - 48' [contd.].
Description: as §1
For test [20], the target named is T1, human serum albumin. As to the kind of experiment: BIACORE, HSA flow cell (Fc=2), fit of the single trace at 125n analyte, row 'Fc=2 - 47'; KD cell shaded [contd.].
Description: as §1
For test [21], the target named is T1, human serum albumin. In words: BIACORE, HSA flow cell (Fc=2), fit of the single trace at 250n analyte, row 'Fc=2 - 46'; KD cell shaded [contd.].
Description: as §1
For test [22], the target named is T1, human serum albumin. In words: BIACORE, HSA flow cell (Fc=2), fit of the single trace at 500n analyte, row 'Fc=2 - 45'; KD cell shaded [contd.].
Description: as §1
The target of test [23] is T1, human serum albumin. As to the kind of experiment: BIACORE, HSA flow cell (Fc=2), fit of the single trace at 62.5n analyte, row 'Fc=2 - 48'; KD cell shaded [contd.].
Description: as §2
Test [24] has as its target T1, human serum albumin. As to the kind of experiment: BIACORE, HSA flow cell (Fc=2), fit of the single trace at 1000n analyte, row 'Fc=2 - 44'; KD cell not shaded [contd.].
Description: as §1
Test [25] has as its target T1, human serum albumin. In words: BIACORE, HSA flow cell (Fc=2), fit of the single trace at 2000n analyte, row 'Fc=2 - 43'; KD cell not shaded [contd.].
Description: as §1
Test [26] concerns the target T1, human serum albumin. As to the kind of experiment: BIACORE, HSA flow cell (Fc=2), fit of the single trace at 3000n analyte, row 'Fc=2 - 42'; KD cell not shaded [contd.].
Description: as §1
Test [27] addresses T1, human serum albumin. As to the kind of experiment: BIACORE, HSA flow cell (Fc=2), fit of the single trace at 5000n analyte, row 'Fc=2 - 41'; KD cell not shaded [contd.].
Description: as §1
The target of test [28] is T3, rat serum albumin. As to the kind of experiment: affinity (KD) for rat serum albumin; method not stated in the table (BIACORE SPR in Example 1).
Test [29] deals with T1, human serum albumin. In words: table of affinities (KD); BIACORE on serum albumin-coated chip according to Example 1; '+' = detectable binding but weak (estimated KD > 5 µM).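 Also: surface plasmon resonance with dAbs flowed over a chip carrying human, rat or mouse serum albumin, blocked uncoated flow cell as reference, KD from on- and off-rate curve fits.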
Description: as §1

Positions count from the first letter of the chain named.

Description for mouse serum albumin: as §1

B1: DOM7h-1 (other)
VL: DIQMTQSPSSLSASVGDRVTITCRASQSISSYLNWYQQKPGKAPKLLIYRNSFLQSGVPSRFSGSGSGTDFTLTISSLQPEDFATYYCQQTYTVPPTFGQGTKVEIKQ
notes: also called DOM7-1
As usually defined, the Kd is the free concentration of one partner at which half of the binding sites on the other are occupied at equilibrium, for simple one-to-one binding. What is called koff is the rate constant with which the complex falls apart. A lower koff goes with a long-lived complex. In general, kon refers to the second-order rate constant of association. A low value points to slower complex formation. In the case of B1, the Kd in the test with human serum albumin [1] was 0.5 to 5 µM; with mouse serum albumin it was above 5 µM; with human serum albumin [2], 0.8 µM; with rat serum albumin [3], above 5 µM; with human serum albumin [8], 0.97 µM; in the test with human serum albumin [9] it was 0.429 µM. Also, the equilibrium dissociation constant (Kd) came to 0.351 µM in the test with human serum albumin [10] and 0.957 µM with human serum albumin [11]. In addition, the Ka with human serum albumin [4] came out at 1.03e+06 M⁻¹; with human serum albumin [5] it was 2.33e+06 M⁻¹; with human serum albumin [6], 2.85e+06 M⁻¹; with human serum albumin [7], 1.05e+06 M⁻¹. Moreover, the off-rate constant (koff) with human serum albumin [4] turned out to be 0.0486 s⁻¹; with human serum albumin [5], 0.0481 s⁻¹; in the test with human serum albumin [6] it was 0.0523 s⁻¹; in the test with human serum albumin [7], 0.0539 s⁻¹. Also, the kon is 50100 M⁻¹ s⁻¹ with human serum albumin [4], 112000 M⁻¹ s⁻¹ with human serum albumin [5], 149000 M⁻¹ s⁻¹ in the test with human serum albumin [6] and 56300 M⁻¹ s⁻¹ with human serum albumin [7].

B2: DOM7h-7 (other)
VL: B1 VL with F53Q, Y92F, T93A, Q108R
B2: the Kd was 0.1 to 0.5 µM with human serum albumin [1]; above 5 µM with mouse serum albumin; 0.4 µM in the test with human serum albumin [2]; above 5 µM with rat serum albumin [3]; 0.662 µM with human serum albumin [20]; 0.353 µM with human serum albumin [21]. Also, the Kd in the test with human serum albumin [22] was found to be 0.341 µM; with human serum albumin [23] it was 0.2 µM; in the test with human serum albumin [24], 0.169 µM; in the test with human serum albumin [25], 0.43 µM; in the test with human serum albumin [26], 45.1 µM; in the test with human serum albumin [27], 9710 µM. Moreover, the Ka with human serum albumin [12] was 1.51e+06 M⁻¹; in the test with human serum albumin [13] it was 2.83e+06 M⁻¹; with human serum albumin [14] it was 2.93e+06 M⁻¹; with human serum albumin [15], 5.93e+06 M⁻¹; with human serum albumin [16] it was 2.33e+06 M⁻¹; in the test with human serum albumin [17], 22100 M⁻¹. The Ka with human serum albumin [19] stood at 5.01e+06 M⁻¹. In addition, the koff was 0.0946 s⁻¹ with human serum albumin [12]; 0.0998 s⁻¹ with human serum albumin [13]; 0.103 s⁻¹ in the test with human serum albumin [14]; 0.105 s⁻¹ with human serum albumin [15]; 0.108 s⁻¹ with human serum albumin [16]; 0.106 s⁻¹ with human serum albumin [17]. Also, the dissociation rate constant (koff) in the test with human serum albumin [18] was 0.107 s⁻¹; with human serum albumin [19], 0.1 s⁻¹. The association rate constant (kon) in the test with human serum albumin [12] worked out at 143000 M⁻¹ s⁻¹; in the test with human serum albumin [13], 283000 M⁻¹ s⁻¹; with human serum albumin [14] it was 302000 M⁻¹ s⁻¹; in the test with human serum albumin [15], 623000 M⁻¹ s⁻¹; with human serum albumin [16], 251000 M⁻¹ s⁻¹; with human serum albumin [17], 2350 M⁻¹ s⁻¹. The molecule further returned a kon with human serum albumin [19] of 501000 M⁻¹ s⁻¹.

B3: DOM7r-31 (other)
VH: EVQLLESGGGLVQPGGSLRLSCTASGFTFRHYRMGWVRQAPGKGLEWVSWIRPDGTFTYYADSVKGRFTISRDNSKNTLYLQMNSLRAEDTAVYYCAKSYMGDRFDYWGQGTLVTVSS
On to B3, for which the Kd was 1 µM with mouse serum albumin, 5 µM with rat serum albumin [28] and around 10 µM in the test with human serum albumin [29].

The values above are taken from US20090111745A1 (DOMANTIS, published 2009).
